Square brackets hold non-standard residues; d marks the D form. Ends that are not written are not given here. Cit = NC(=O)NCCC[C@H](N)C(=O)O
Legend:
Test in all cases: in vitro binding assay to recombinant MHC class II protein
[1] = molecular target: MHC class II of the HLA DRB1 0101 genotype (Homo sapiens, UniProt P01903+P01911, A100R/D57E/F55L/F60I/F76Y/I96L/L162R/M171V/P40L/Q125E/R42F/V115G/Y59C); parameters: key: *0101: the listing of the allele in the column for the allele indicates binding; *0401: “0401” in the “Binds to 0401” column indicates binding of the peptide to MHC class II of the HLA DRB1 0401 genotype; *0404: the listing of the allele in the column for the allele indicates binding; *0405: the listing of the allele in the column for the allele indicates binding; *0408: the listing of the allele in the column for the allele indicates binding; *1001: the listing of the allele in the column for the allele indicates binding; “no” or no data indicates no binding to a protein of that genotype
Description: (§1) Binding of the peptides to recombinant MHC class II protein of various alleles has been confirmed in an in vitro binding assay and the results are shown in Tables 1, 2 and 3. In table 1, 2 and 3, the listing of the allele in the column for the allele indicates binding. Thus “0401” in the “Binds to 0401” column indicates binding of the peptide to MHC class II of the HLA DRB1 0401 genotype. “no” or no data indicates no binding to a protein of that genotype. Empty boxes indicate no binding or that binding has not been determined. In the tables it is also indicated if the peptide has a citrulline residue, where “yes” indicates the presence of a citrulline residue and “no” indicates the absence of a citrulline residue.

[2] = molecular target: MHC class II of the HLA DRB1 0401 genotype (Homo sapiens, UniProt P01903+P01911, A100K/A169T/F76Y/I96L/K127E/L162R/M171V/N62H/P40V/Q125Y/R42H/S133A/S149N/S66Y/V115G/V209L/W38E); parameters: key to Binds to 0401: *0101: the listing of the allele in the column for the allele indicates binding; *0401: “0401” in the “Binds to 0401” column indicates binding of the peptide to MHC class II of the HLA DRB1 0401 genotype; *0404: the listing of the allele in the column for the allele indicates binding; *0405: the listing of the allele in the column for the allele indicates binding; *0408: the listing of the allele in the column for the allele indicates binding; *1001: the listing of the allele in the column for the allele indicates binding; “no” or no data indicates no binding to a protein of that genotype; details: recombinant MHC class II, HLA DRB1 0401
Description: as §1
Thus for these peptides no binding to HLA-DR0401 was observed when citrulline was exchanged with the original amino acid arginine (Table 4). No binding of the citrullinated peptides was seen to HLA-DR 03 or 02 variants.

[3] = molecular target: MHC class II of the HLA DRB1 0404 genotype (Homo sapiens, UniProt P01903+P01911, A100R/A169T/F76Y/I96L/K127E/L162R/M171V/N62H/P40V/Q125Y/R42H/S133A/S149N/S66Y/V209L/W38E); parameters: key: *0101: the listing of the allele in the column for the allele indicates binding; *0401: “0401” in the “Binds to 0401” column indicates binding of the peptide to MHC class II of the HLA DRB1 0401 genotype; *0404: the listing of the allele in the column for the allele indicates binding; *0405: the listing of the allele in the column for the allele indicates binding; *0408: the listing of the allele in the column for the allele indicates binding; *1001: the listing of the allele in the column for the allele indicates binding; “no” or no data indicates no binding to a protein of that genotype
Description: as §1

[4] = molecular target: MHC class II of the HLA DRB1 0405 genotype (Homo sapiens, UniProt P01903+P01911, A100R/A169T/D86S/F76Y/I96L/K127E/L162R/M171V/N62H/P40V/Q125Y/R42H/S133A/S149N/S66Y/V115G/V209L/W38E); parameters: key: *0101: the listing of the allele in the column for the allele indicates binding; *0401: “0401” in the “Binds to 0401” column indicates binding of the peptide to MHC class II of the HLA DRB1 0401 genotype; *0404: the listing of the allele in the column for the allele indicates binding; *0405: the listing of the allele in the column for the allele indicates binding; *0408: the listing of the allele in the column for the allele indicates binding; *1001: the listing of the allele in the column for the allele indicates binding; “no” or no data indicates no binding to a protein of that genotype
Description: as §1

Row | Binds to 0101 [1] | Binds to 0401 [2] | Binds to 0404 [3] | Binds to 0405 [4] | Substance
1 | *0101 | *0401 | – | – | type II collagen 138: human collagen type II peptide, not citrullinated (AGFKGEQGPKGEPGP; listed as Homo sapiens)
2 | – | no | *0404 | *0405 | type II collagen 241: human collagen type II peptide, not citrullinated (LAGQRGIVGLPGQRG; listed as Homo sapiens)
3 | – | *0401 | *0404 | *0405 | vimentin 41: human vimentin peptide, not citrullinated (NTLQSFRQDVDNASL; listed as Homo sapiens)
4 | *0101 | *0401 | *0404 | – | type II collagen 137: human collagen type II peptide, not citrullinated (GEPGIAGFKGEQGPK; listed as Homo sapiens)
5 | *0101 | *0401 | – | – | vimentin 95: citrullinated human vimentin peptide (Y[Cit][Cit]MFGGPGTAS[Cit]PS; listed as Homo sapiens)
6 | – | – | *0404 | – | type II collagen 257: human collagen type II peptide, not citrullinated (GDRGETGAVGAPGAP; listed as Homo sapiens)
7 | – | – | – | *0405 | type II collagen 178: human collagen type II peptide, not citrullinated (PSGFQGLPGPPGPPG; listed as Homo sapiens)
8 | – | – | *0404 | – | vimentin 44: human vimentin peptide, not citrullinated (ARLDLERKVESLQEE; listed as Homo sapiens)
9 | *0101 | *0401 | – | – | vimentin 99: citrullinated human vimentin peptide (VTTST[Cit]TYSLGSAL[Cit]; listed as Homo sapiens)
10 | – | – | *0404 | – | vimentin 92: human vimentin peptide, not citrullinated (GQVINETSQHHDDLE; listed as Homo sapiens)
11 | – | *0401 | – | *0405 | vimentin 98: citrullinated human vimentin peptide (SS[Cit]SYVTTST[Cit]TYSL; listed as Homo sapiens)
12 | *0101 | – | – | – | vimentin 132: citrullinated human vimentin peptide (F[Cit]QDVDNASLA[Cit]LDL; listed as Homo sapiens)
13 | – | *0401 | – | – | vimentin 59: human vimentin peptide, not citrullinated (YKSKFADLSEAANRN; listed as Homo sapiens)
14 | – | *0401 | – | – | vimentin 145: citrullinated human vimentin peptide (STEY[Cit][Cit]QVQSLTCEV; listed as Homo sapiens)
15 | *0101 | *0401 | no | – | vimentin 42: human vimentin peptide, not citrullinated (FRQDVDNASLARLDL; listed as Homo sapiens)
16 | – | – | *0404 | – | type II collagen 100: human collagen type II peptide, not citrullinated (PQGARGFPGTPGLPG; listed as Homo sapiens)
17 | – | *0401 | – | – | vimentin 20: human vimentin peptide, not citrullinated (FKNTRTNEKVELQEL; listed as Homo sapiens)

Row | Binds to 0101 [1] | Binds to 0401 [2] | Binds to 0404 [3] | Binds to 0405 [4] | Substance
18 | *0101 | no | *0404 | – | vimentin 79: human vimentin peptide, not citrullinated (MALDIEIATYRKLLE; listed as Homo sapiens)
19 | *0101 | *0401 | – | – | vimentin 55: human vimentin peptide, not citrullinated (DVRQQYESVAAKNLQ; listed as Homo sapiens)
20 | *0101 | no | – | – | vimentin 13: human vimentin peptide, not citrullinated (YATRSSAVRLRSSVP; listed as Homo sapiens)
21 | – | *0401 | *0404 | – | type II collagen 195: human collagen type II peptide, not citrullinated (PGLQGMPGERGAAGI; listed as Homo sapiens)
22 | – | *0401 | – | – | vimentin 71: human vimentin peptide, not citrullinated (FAVEAANYQDTIGRL; listed as Homo sapiens)
23 | *0101 | – | no | – | vimentin 27: human vimentin peptide, not citrullinated (LLAELEQLKGQGKSR; listed as Homo sapiens)
24 | – | – | *0404 | – | type II collagen 224: human collagen type II peptide, not citrullinated (GPPGATGFPGAAGRV; listed as Homo sapiens)
25 | *0101 | – | – | – | vimentin 156: citrullinated human vimentin peptide (XEYQDLLNVKMALDI; citrullinated; MOD_RES (1)..(1) Citrulline; listed as Homo sapiens)
26 | no | *0401 | – | – | vimentin 16: human vimentin peptide, not citrullinated (GVRLLQDSVDFSLAD; listed as Homo sapiens)
27 | *0101 | – | *0404 | – | vimentin 32: human vimentin peptide, not citrullinated (ELRRQVDQLTNDKAR; listed as Homo sapiens)
28 | – | – | *0404 | – | type II collagen 166: human collagen type II peptide, not citrullinated (VMGFPGPKGANGEPG; listed as Homo sapiens)
29 | – | – | – | *0405 | type II collagen 272: human collagen type II peptide, not citrullinated (GHRGFTGLQGLPGPP; listed as Homo sapiens)
30 | – | *0401 | – | – | vimentin 150: citrullinated human vimentin peptide (FAVEAANYQDTIG[Cit]L; listed as Homo sapiens)
31 | no | *0401 | *0404 | – | vimentin 93: citrullinated human vimentin peptide (MST[Cit]SVSSSSY[Cit][Cit]MF; listed as Homo sapiens)
32 | – | *0401 | No | – | vimentin 159: citrullinated human vimentin peptide (XKLLEGEESXISLPL; citrullinated; MOD_RES (1)..(1) Citrulline; MOD_RES (10)..(10) Citrulline; listed as Homo sapiens)
33 | – | – | *0404 | – | vimentin 14: human vimentin peptide, not citrullinated (SAVRLRSSVPGVRLL; listed as Homo sapiens)
